Source: article doi:10.1101/2024.03.05.583490

Molecular target: IR-Rluc (insulin receptor fused to Rluc) (UniProt P06213)
Assay: FRET or BRET

- fold change in BRET50 against the wild type: 2 fold
Substance: IGF1R-YPET F450A (from UniProt P08069 31-1367) (receptor)
